Data reported in US11160869B2 (priority 2019, dated 2021).

Assays:
[1] = PK/PD by route (oral, subcutaneous, intravenous) in NHP; assay type: in vivo, Macaca fascicularis
From the text: For oral administration the IL-10 delivery construct was formulated in size 0 enteric coated capsules. For intravenous or subcutaneous administration it was formulated as a liquid in DS lyo formulation.

[2] = test system: polarized gut epithelial cells; experiment: In vivo transcytosis across polarized gut epithelial cells, rat jejunum, microscopy; set-up: species or system Wistar rats; details: luminal application to rat jejunum
Protocol: In vivo transcytosis was tested using male Wistar rats. Male Wistar rats were housed 3-5 per cage with a 12/12 h light/dark cycle and were about 225-275 g (approximately 6-8 weeks old) when placed on study. Experiments were conducted during the light phase using a non-recovery protocol that uses continuous isoflurane anesthesia. A 4-5 cm midline abdominal incision that exposed mid-jejunum regions was conducted. Stock solutions at 3.86×10^−5 M of delivery construct were prepared in phosphate buffered saline (PBS), with 50 μL (per 250 g rat) being administered by intraluminal injection (ILI) using a 29-gauge needle. The injection site mesentery was then marked with a permanent marker. […]
The delivery construct (SEQ ID NO: 5) included the cholix carrier with SEQ ID NO: 4 (and further including an N-terminal methionine) coupled to the IL-10 payload having an amino acid set forth in SEQ ID NO: 2 via a spacer having an amino acid set forth in SEQ ID NO: 6. Green fluorescence indicates the presence of IL-10 (via staining with an anti-IL-10 antibody). Blue fluorescence indicates DAPI staining, which labels DNA, and red fluorescence indicates the presence of CK-8 (cytokeratin-8) with which a cholix-derived carrier can co-localize (e.g., in a supranuclear region of an epithelial cell) during transcytosis. […]

[3] = 37 C, 5 h, 0.3 mg/mL

B1: IL-10 delivery construct: recombinant homodimeric fusion protein: N-terminal methionine, cholix386 domain, polyGlySer spacer, recombinant human IL-10 (protein)
chain: MVEEALNIFDECRSPCSLTPEPGKPIQSKLSIPSDVVLDEGVLYYSMTINDEQNDIKDEDKGESIITIGEFATVRATRHYVNQDAPFGVIHLDITTENGTKTYSYNRKEGEFAINWLVPIGEDSPASIKISVDELDQQRNIIEVPKLYSIDLDNQTLEQWKTQGNVSFSVTRPEHNIAISWPSVSYKAAQKEGSRHKRWAHWHTGLALCWLVPMDAIYNYITQQNCTLGDNWFGGSYETVAGTPKVITVKQGIEQKPVEQRIHFSKGNAMSALAAHRVCGVPLETLARSRKPRDLTDDLSCAYQAQNIVSLFVATRILFSHLDSVFTLNLDEQEPEVAERLSDLRRINENNPGMVTQVLTVARQIYNDYVTHHPGLTPEQTSAGAQAGGGGSGGGGSGGGGSPGQGTQSENSCTHFPGNLPNMLRDLRDAFSRVKTFFQMKDQLDNLLLKESLLEDFKGYLGCQALSEMIQFYLEEVMPQAENQDPDIKAHVNSLGENLKTLRLRLRRCHRFLPCENKSKAVEQVKNAFNKLQEKGIYKAMSEFDIFINYIEAYMTMKIRN
modifications: homodimer
systemic levels of IL-10 after oral treatment ([1]; oral 1 mg or 5 mgs vs SC 0.2 mg/kg, IV 0.05 mg/kg): minimal systemic levels of IL-10
IL-1Ra/IL-1β ratio ([1]; subcutaneous or intravenous administration): minimal effect
earliest time of IL-10 payload transport into the lamina propria [2]: ≤ 1 min
solution stability after reconstitution in PBS [3]: significant degradation
